“And” between values parts separate entries of the source, which are not always exact repeats. Identical values can stand only once.

The source of these data is publication PMC8784342, “Investigation of sugar binding kinetics of the E. coli sugar/H^+ symporter XylE using solid-supported membrane-based electrophysiology” (The Journal of Biological Chemistry, 2021).

What all share (assay type): biochemical, Escherichia coli
Substrate in series [1]: OC[C@H]1O[C@@H](O[C@@H]2[C@@H](CO)O[C@](O)(CO)[C@H]2O)[C@H](O)[C@@H](O)[C@H]1O
As to the kind of experiment: SSM-based electrophysiology, proteoliposomes with wt LacY. The procedure: (§1) Reconstitution of purified proteins (2–20 mg/ml) was carried out with E. coli phospholipids (Avanti Polar Lipids, E. coli polar lipid extract). Preformed liposomes (0.2–2 ml, 10 mg/ml) were dissolved in 1% (w/v) n-octyl-β-D-glucoside, and the protein suspension was mixed on ice to a concentration of 0.2 mg protein/mg lipid (LPR 5).
Wt XylE, wt FucP, and the mutant proteins were reconstituted using overnight incubation in 400 mg/ml BioBeads (SM-2 Adsorbent Media, Bio-Rad) at 4 °C. After reconstitution, the samples were diluted to 2.5 mg/ml lipid concentration, frozen in liquid nitrogen, and stored at −80 °C. For wt LacY and mutant proteins, this procedure was not successful. […]
For measurements, a single solution exchange configuration ([23]) was employed that consisted in three phases of 0.5 s duration each: Flow of nonactivating solution (NA), activating solution (A), and nonactivating solution (NA). […] When pH dependence is determined, pH of NA and A solutions during one experiment are kept constant. […]
(§2) Instruments with different time resolution were used as required. […] Currents were recorded throughout the entire time and amplified with a current amplifier set to a gain of […] and a rise time of 10 ms (low time-resolution set up) or 3 ms (high time-resolution set up).
All NA solutions were buffered in 100 mM KPi at a given pH value. […] Therefore, only transient currents were recorded. […]

Substrate in series [2]: OC[C@@H]1OC(O)[C@@H](O)[C@H](O)[C@@H]1O
Description: SSM-based electrophysiology, proteoliposomes with wt FucP. The note with it: other: pH 7.6, minor substrate, peak currents, low time-resolution set up. The procedure:
as §1
(§3) Wt XylE, wt FucP, and the mutant proteins were reconstituted using overnight incubation in 400 mg/ml BioBeads (SM-2 Adsorbent Media, Bio-Rad) at 4 °C. After reconstitution, the samples were diluted to 2.5 mg/ml lipid concentration, frozen in liquid nitrogen, and stored at −80 °C. For wt LacY and mutant proteins, this procedure was not successful. We, therefore, applied the previously established n-octyl-β-D-glucoside dilution method (1:100) ([69]).
(§4) SSM measurements were performed as described ([20], [23]). After thawing the sample and sonication in a water bath, 30 μl of proteoliposomes (2.5 mg/ml lipid at LPR 5) was allowed to adsorb for 1 to 2 h to an octadecanethiol/phosphatidylcholine hybrid bilayer on a gold surface (the sensor).
(§5) For measurements, a single solution exchange configuration ([23]) was employed that consisted in three phases of 0.5 s duration each: Flow of nonactivating solution (NA), activating solution (A), and nonactivating solution (NA). Only the activating solution contained the sugar. When pH dependence is determined, pH of NA and A solutions during one experiment are kept constant. Between experiments using different pH values, the sensor was incubated at the new pH for 3 min to equilibrate the intraliposomal pH.
as §2
(§6) All NA solutions were buffered in 100 mM KPi at a given pH value. […] Sugar concentration jumps initiated sugar-proton symport, and charge transfer was measured by capacitive coupling. Therefore, only transient currents were recorded. […]

Substrate in series [3]: OC1OC[C@@H](O)[C@@H](O)[C@@H]1O
Described as above. The procedure:
as §1, §3, §4, §5, §2, §6

Setting [4] is: other: pH 7.6, minor substrate, peak currents, low time-resolution set up.
[5] abbreviates: other: pH 7.6, peak currents, Hill equation.

B1: wt LacY (Escherichia coli K-12) (protein)
chain: MYYLKNTNFWMFGLFFFFYFFIMGAYFPFFPIWLHDINHISKSDTGIIFAAISLFSLLFQPLFGLLSDKLGLRKYLLWIITGMLVMFAPFFIFIFGPLLQYNILVGSIVGGIYLGFCFNAGAPAVEAFIEKVSRRSNFEFGRARMFGCVGWALCASIVGIMFTINNQFVFWLGSGCALILAVLLFFAKTDAPSSATVANAVGANHSAFSLKLALELFRQPKLWFLSLYVIGVSCTYDVFDQQFANFFTSFFATGEQGTRVFGYVTTMGELLNASIMFFAPLIINRIGGKNALLLAGTIMSVRIIGSSFATSALEVVILKTLHMFEVPFLLVGCFKYITSQFEVRFSATIYLVCFCFFKQLAMIFMSVLAGNMYESIGFQGAYLVLGLVALGFTLISVFTLSGPGPLSLLRRQVNEVA
notes: made in house; host or cells: E. coli XL1-Blue
As usually defined, the Km is the concentration of substrate that gives half-maximal velocity. In the case of B1, in series [1] (setting [4]), the Km was 2.27 ± 0.54 mM and 2.3 ± 0.6 mM. In series [1] (setting [5]), the K0.5 was determined as 6.94 ± 3.58 mM.

B2: wt FucP (Escherichia coli K-12) (protein)
chain: MGNTSIQTQSYRAVDKDAGQSRSYIIPFALLCSLFFLWAVANNLNDILLPQFQQAFTLTNFQAGLIQSAFYFGYFIIPIPAGILMKKLSYKAGIITGLFLYALGAALFWPAAEIMNYTLFLVGLFIIAAGLGCLETAANPFVTVLGPESSGHFRLNLAQTFNSFGAIIAVVFGQSLILSNVPHQSQDVLDKMSPEQLSAYKHSLVLSVQTPYMIIVAIVLLVALLIMLTKFPALQSDNHSDAKQGSFSASLSRLARIRHWRWAVLAQFCYVGAQTACWSYLIRYAVEEIPGMTAGFAANYLTGTMVCFFIGRFTGTWLISRFAPHKVLAAYALIAMALCLISAFAGGHVGLIALTLCSAFMSIQYPTIFSLGIKNLGQDTKYGSSFIVMTIIGGGIVTPVMGFVSDAAGNIPTAELIPALCFAVIFIFARFRSQTATN
notes: made in house; host or cells: E. coli BL21 DE3
With B2, the Km in series [2] is 7.4 ± 1.3 mM; in series [3] (setting [4]), 12.2 ± 2.8 mM. Moreover, in series [3] (setting [5]), the K0.5 was 80 ± 40 mM.
